Positions count from the first letter of the chain named. One block for each binder: values may come before it.
Legend:
[1] = target: T1, human IL-22BP (Isoform 2)-His (human, UniProt Q969J5 22-263); assay: competition ELISA on captured human IL-22BP-His, IL-22 as competitor; weaker inhibitory tendency than cMAb3 and the hMAb3 antibodies
T1 construct: Expressed in FreeStyle 293F cells and purified from the culture supernatant; also called human IL-22BP-His
T1 sequence: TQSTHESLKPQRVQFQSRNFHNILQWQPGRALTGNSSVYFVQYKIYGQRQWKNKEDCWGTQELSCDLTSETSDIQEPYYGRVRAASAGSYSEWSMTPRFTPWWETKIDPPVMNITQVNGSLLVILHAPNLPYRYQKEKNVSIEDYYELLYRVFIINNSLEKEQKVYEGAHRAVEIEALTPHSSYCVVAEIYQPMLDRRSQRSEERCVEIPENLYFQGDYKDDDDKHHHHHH

[2] = target: T1, human IL-22BP (Isoform 2)-His; assay: direct ELISA on coated human IL-22BP-His, purified rat antibody
monkey IL-22BP-His = target: T2, monkey IL-22BP-His (monkey); assay: direct ELISA on coated monkey IL-22BP-His, purified rat antibody
T2 chain: T1 sequence with S3P, T4A, S64F, E92D, Y132Q, V140I, L149V, A172V, T179P, I209M

mouse IL-22BP-His [3] = target: T3, mouse IL-22BP-His (mouse, UniProt Q80XF5 21-230); assay: direct ELISA on coated mouse IL-22BP-His
T3 chain: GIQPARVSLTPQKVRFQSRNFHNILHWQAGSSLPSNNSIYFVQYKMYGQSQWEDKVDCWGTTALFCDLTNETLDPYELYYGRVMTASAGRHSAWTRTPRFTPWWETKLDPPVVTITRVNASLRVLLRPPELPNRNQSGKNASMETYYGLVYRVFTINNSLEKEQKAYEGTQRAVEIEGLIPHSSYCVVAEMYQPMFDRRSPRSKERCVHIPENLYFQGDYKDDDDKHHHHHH

[4] = target: T1, human IL-22BP (Isoform 2)-His; assay: direct ELISA screen on coated human IL-22BP-His, then competition ELISA with IL-22; hybridoma supernatant
mouse IL-22BP-His [5] = target: T3, mouse IL-22BP-His; assay: direct ELISA on coated mouse IL-22BP-His, purified rat antibody
[6] = target: T1, human IL-22BP (Isoform 2)-His; assay: competition ELISA on captured human IL-22BP-His, IL-22 as competitor; stronger inhibitory tendency than cMAb4 and the hMAb4 antibodies

binding result [1]: binds
B1: humanized anti-human IL-22BP antibody hMAb4_H03L01 (antibody, human IgG1, kappa, V domains shown)
VH: EVQLVESGGGLVQPGGSLRLSCAASGFTYSNYVMAWVRQAPGKGLEWVASISTGGGNTAYRDSVKGRFTISRDNSKNTLYLQMNSLRAEDTAVYYCARVSPTEGMDYWGQGTLVTVSS
VL: DIVMTQGPLSLPVTPGEPASISCRSSKSLLYSNGKTYLNWYLQKPGQSPQLLIYWMSTRASGVPDRFSGGGSGTDFTLKISRVEAEDVGVYYCQQGLELPLTFGQGTKVEIKR
notes: Human IgG1 / kappa

binding result [1]: binds
B2: humanized anti-human IL-22BP antibody hMAb4_H02L05 (antibody, human IgG1, kappa, V domains shown)
VH: B1 VH with A49S
VL: DIQMTQSPSSLSASVGDRVTITCRSSKSLLYSNGKTYLNWYQQKPGKSPKLLIYWMSTRASGVPDRFSGGGSGTDFTLTISSLQPEDFATYYCQQGLELPLTFGQGTKVEIKR
notes: Human IgG1 / kappa

binding result [1]: binds
B3: humanized anti-human IL-22BP antibody hMAb4_H03L03 (antibody, human IgG1, kappa, V domains shown)
VH: B1 VH
VL: DIVMTQGPDSLAVSLGERATITCRSSKSLLYSNGKTYLNWYQQKPGQPPKLLIYWMSTRASGVPDRFSGGGSGTDFTLTISSLQAEDVAVYYCQQGLELPLTFGQGTKVEIKR
notes: Human IgG1 / kappa

binding result [2]: binds | binding result (monkey IL-22BP-His): binds | binding result (mouse IL-22BP-His [3]): no binding
B4: rat anti-human IL-22BP antibody rMAb81 (antibody, rat IgG1, V domains shown)
VH: EVQLVESGGGLVQPGRSLKLSCLASGFTFSNYGMNWIRQAPGKGLEWVATISSGSSYIYYADTVKGRFTISRENARNTLYLQMTSLRSEDTAFYYCARPLTGAFDYWGQGVMVTVSS
VL: DIVLTQSPALAASLGQRATISCRASQSVSTSSHNLMHWYQQKPGHQPKLLIYAASNLASSIPARFSGSGSGTDFTLTINPVQADDIATYYCQQSRELPLTFGSGTKLEIKR
notes: Rat IgG1, kappa chain, from hybridoma

binding result (monkey IL-22BP-His): binds | binding result [4]: binds | binding result (mouse IL-22BP-His [3]): no binding
B5: rat anti-human IL-22BP antibody rMAb4 (antibody, rat IgG1, V domains shown)
VH: EVQLVESGGGLVQPGRSLKLSCAASGFTYSNYVMAWVRQAPTKGLEWVASISTGGGNTSYRDSVKGRFTISRDNAKNTLYLQMDSLRSEDTATYYCANVSPTEGMDYWGQGVMVTVSS
VL: DIVMTQGALPNPVPSGESVSITCRSSKSLLYSNGKTYLNWYLQRPGQSPQLLIYWMSTRASGVSDRFSGGGSGTDFTLKISGVEAEDVGVYYCQQGLELPLTFGSGTKLEIKR
notes: as for B4

binding result [1]: binds
B6: human chimeric anti-human IL-22BP antibody cMAb4 (antibody, human IgG1, kappa, V domains shown)
VH: B5 VH with S59A, N98R
VL: B5 VL
notes: Rat variable regions on human IgG1 / kappa constant regions

binding result [2]: binds | binding result (monkey IL-22BP-His): binds | binding result (mouse IL-22BP-His [5]): binds
B7: rat anti-human IL-22BP antibody rMAb8 (antibody, rat IgG2a, V domains shown)
VH: QVQLKESGPGLVQPSQTLSLTCTVSGFSLSSYTVSWVRQPPGKGLDWIAAISSGGSTYYNSALKSRLTISRDTSKSQVFLKMNSLQTEDTAMYFCARSTGDYWGQGVMVTVSS
VL: DIQMTQSPSLLSASVGDRVTLNCKASQSIYKNLAWYQQKLGEAPKLLIYSAKSLQTGTPSRFSGSGSGTDFTLTISSLQPEDVATYFCHQYYSGWTFGGGTKLELKR
notes: Rat IgG2a, kappa chain, from hybridoma

binding result [2]: binds | binding result (monkey IL-22BP-His): binds | binding result (mouse IL-22BP-His [5]): binds
B8: rat anti-human IL-22BP antibody rMAb14 (antibody, rat IgG1, V domains shown)
VH: B7 VH with S30T, D46E, T68S, N83S, T90A
VL: B7 VL with S28N, A43T, K45R, K52N, S53R, T58I
notes: as for B4

binding result (monkey IL-22BP-His): binds | binding result [4]: binds | binding result (mouse IL-22BP-His [3]): no binding
B9: rat anti-human IL-22BP antibody rMAb3 (antibody, rat IgG1, V domains shown)
VH: EVQLQQSGAELVRPGTSVKLSCKLSGGTISAYFIHFVKQRPGQGLEWIGRIDPEDDSTEYAEKFKNKATLTADTSSNTAYLILGSLTSDDTATYFCTTGSDYWGQGVMVTVSS
VL: DVVMTQTPVSLSLAIGQPASISCKSSQSLLGTSGKTFLNWILQRPGQSPKRLIYQVSKLYSGVPDRFSGSGSETEFTLKISRVEAEDLGVYYCWQGTLFPRTFGGGTKLEVKR
notes: as for B4

binding result [6]: binds
B10: humanized anti-human IL-22BP antibody hMAb3_H01L03 (antibody, human IgG1, kappa, V domains shown)
VH: EVQLVQSGAEVKKPGASVKVSCKASGGTISAYFIHWVRQAPGQGLEWMGRIDPEDDSTEYAQKFQGRVTITADTSTNTAYMELSSLRSEDTAVYYCTTGSDYWGQGTLVTVSS
VL: B9 VL with S12P, L13V, A14T, I15L, L42Q, E73G, E75D, L88V, L109V, V111I
notes: Human IgG1 / kappa

binding result [6]: binds
B11: human chimeric anti-human IL-22BP antibody cMAb3 (antibody, human IgG1, kappa, V domains shown)
VH: B9 VH
VL: B9 VL
notes: as for B6

binding result [6]: binds
B12: humanized anti-human IL-22BP antibody hMAb3_H01L04 (antibody, human IgG1, kappa, V domains shown)
VH: B10 VH
VL: DVVMTQSPLSLPVTLGQPASISCKSSQSLLGTSGKTFLNWIQQRPGQSPKRLIYQVSKLYSGVPDRFSGSGSGTEFTLKISRVEAEDVGVYYCWQGTLFPRTFGGGTKVEIKR
notes: Human IgG1 / kappa

binding result [6]: binds
B13: humanized anti-human IL-22BP antibody hMAb3_H04L03 (antibody, human IgG1, kappa, V domains shown)
VH: B10 VH with A24L, W36F, I70L, M81L, Y95F
VL: B12 VL with S7T, L9V, E75D
notes: Human IgG1 / kappa

binding result [2]: binds | binding result (monkey IL-22BP-His): binds | binding result (mouse IL-22BP-His [3]): no binding
B14: rat anti-human IL-22BP antibody rMAb20 (antibody, rat IgG1, V domains shown)
VH: QVQLKESGPGLVQPSQTLSLACTVSGFSLTTYHVHWVRQPSGEGLEWMGVIWTGGSTEYNSALKPRLSISRDTSKSQVFLKMNVLQTEDTATYYCARESRGRRIFDYWGQGVMVTVSS
VL: DIQMTQSPSVLSASVGDRVTLNCKASQNINKYLNWYQQKLGEAPKLLIYNTNNLQTGIPSRFSGSGSGTDYTLTISSLQPEDFGTYFCFHHNSWPLTFGSGTKLEIKR
notes: as for B4
